Measured values: publication PMC10811483

How the values were obtained:
Assay in all cases: SPR
Z-M_K33AzK-PyOx = biological target: Z-M_K33AzK-PyOx
Z-M_M8AzK = biological target: Z-M_M8AzK
Z-M_K33AzK = biological target: Z-M_K33AzK
Z-M_D37AzK = biological target: Z-M_D37AzK
Z-M_H19AzK = biological target: Z-M_H19AzK
Z-M_M8AzK-PyOx = biological target: Z-M_M8AzK-PyOx
Z-M_H19AzK-PyOx = biological target: Z-M_H19AzK-PyOx

trastuzumab WT (antibody)
Kd (Z-M_K33AzK-PyOx): 3.48 nM
Kd (Z-M_M8AzK): 3.94 nM
Kd (Z-M_K33AzK): 4.85 nM
Kd (Z-M_D37AzK): 3.52 nM
Kd (Z-M_H19AzK): 5.1 nM
Kd (Z-M_M8AzK-PyOx): 5.02 nM
Kd (Z-M_H19AzK-PyOx): 4.94 nM
